This is an account of results in US20130071357A1, “IDENTIFICATION, PROLIFERATION IN SITU, HARVESTING, SEPARATION, AND TRANSPLANTATION OF ADULT-DERIVED REGENERATIVE PLURIPOTENT TRANSITIONAL BLASTOMERE-LIKE STEM CELLS AND METHODS OF TREATMENT THEREOF” (HEYGEN, LLC, priority 2011, published 2013).

In experiment [1] the test system is adult totipotent blastomeric-like stem cells. As to the kind of experiment: induction of blastomeric-like stem cells in culture. It counts as cell-based, rat. As to conditions: BLSCs. From the text: 1961; Rohme 1981; Young and Black, 2005a].
FIG. 7. Blastomeric-like stem cells (BLSCs) harvested from male Sprague-Dawley out bred rat 0001 and propagated from a single cell derived by serial dilution clonogenic analysis, then genomically labeled with LacZ to synthesize the beta-galactosidase gene product. Clone designated as Scl-44beta. […] B-L is phase contrast microscopy to show unstained cells in field of view. […] Original magnification 200×.
FIG. 8. Blastomeric-like stem cells (BLSCs) harvested from male Sprague-Dawley out bred rat 0001 and propagated from a single cell derived by serial dilution clonogenic analysis, then genomically labeled with LacZ to synthesize the beta-galactosidase gene product. Clone designated as Scl-44beta.

The subject of experiment [2] is adult pluripotent epiblast-like stem cells. Kind of experiment: induction of epiblast-like stem cells in culture. It counts as cell-based, rat. As to conditions: ELSCs.

B1: brain-derived neurotrophic factor: lineage-induction agent (protein, UniProt P23560 19-247, looked up)
Neurotrophic factor BDNF …: APMKEANIRGQGGLAYPGVRTHGTLESVNGPKAGSRGLTSLADTFEHVIEELLDEDQKVRPNEENNKDADLYTSRVMLSSQVPLEPPLLFLLEEYKNYLDAANMSMRVRRHSDPARRGELSVCDSISEWVTAADKKTAVDMSGGTVTVLEKVPVSKGQLKQYFYETKCNPMGYTKEGCRGIDKRHWNSQCRTTQSYVRALTMDSKKRIGWRFIRIDTSCVCTLTIKRGR
B1: the “response to lineage-induction agent” value in experiment [1] and in experiment [2] was “forming cells belonging to the ectodermal lineage” throughout.
